# According to patent publication US9474782B2, “Use of decorin for increasing muscle mass” (Association Francaise contre les Myopathies, priority 2009, dated 2016):
# “And” between values parts separate entries of the source, which are not always exact repeats. Identical values can stand only once.
# B1: mDecorin: recombinant mouse decorin (mDecorin) of sequence SEQ ID NO: 6, provided by R&D Systems (protein)
# chain: MKATLIFFLLAQVSWAGPFEQRGLFDFMLEDEASGIIPYDPDNPLISMCPYRCQCHLRVVQCSDLGLDKVPWDFPPDTTLLDLQNNKITEIKEGAFKNLKDLHTLILVNNKISKISPEAFKPLVKLERLYLSKNQLKELPEKMPRTLQELRVHENEITKLRKSDFNGLNNVLVIELGGNPLKNSGIENGAFQGLKSLSYIRISDTNITAIPQGLPTSLTEVHLDGNKITKVDAPSLKGLINLSKLGLSFNSITVMENGSLANVPHLRELHLDNNKLLRVPAGLAQHKYIQVVYLHNNNISAVGQNDFCRAGHPSRKASYSAVSLYGNPVRYWEIFPNTFRCVYVRSAIQLGNYK
# modifications: murine DCN
# Columns and labels:
# mdx mice = experiment: Weight of tibialis anterior muscles after intramuscular injection into dystrophic mdx mice; type: in vivo, mouse; conditions: for Activity of decorin fragment on muscle growth (ability to increase muscle mass), in words: decorin fragments, intramuscular injection
# Description: The protein used was recombinant mouse decorin (mDecorin) of sequence SEQ ID NO: 6, provided by R&D Systems. Twenty-four to forty hours before the injection, 100 μl of 150 mM sterile NaCl and 6 μl of 250 μM ZnCl2 were added to 100 μg of mDecorin powder. The final volume was 106 μl with a final concentration of approximately 1 μg/μl. For the injections into the control muscles a mixture was also prepared of 100 μl of 150 mM NaCl and 6 μl of 250 μM ZnCl2. All these solutions, after being vortexed, were stored at 4° C. In Vivo Injection mdx dystrophic ([…] muscular dystrophy) or gamma-sarcoglycan −/− mice were used that were at least 6 weeks old. 20 μg of mDecorin, i.e. 22 μl of the solution described above (20 μg Decorin+15 μM ZnCl2/22 μl NaCl), were injected into the left tibialis anterior (LTA), the muscle treated. 22 μl of the control solution described above (15 μM ZnCl2/22 μl NaCl) were administered into the control muscle, the right tibialis anterior (RTA). A specific number of days after injection, the mice were sacrificed and the RTA and LTA were removed, weighed then frozen for further histological study. Preparation and Injection of the Solution Containing the Peptide mDCN 31-71: […] It was dissolved at 2 mg/ml in 150 mM NaCl and stored at −80° C. For injections, the preparation protocol was identical to that used for the protein, i.e. 24-40 hours before injection, the desired amount of peptide was removed from the stock solution and mixed with a solution of zinc chloride (ZnCl2) and 150 mM NaCl, to produce a final zinc concentration of 15 μM. The injection protocol was identical to that used for the protein. The RTA and LTA muscles were collected 7 (D7), 14 (D14) or 21 (D21) days after the injection and weighed. The experiment was repeated on three separate mice each time. The results are summarised in the following tables: mdx Mice were Injected Intramuscularly into the TA with the Following Formulations: LTA 1: 65 μg peptide 41 DCN+15 μM ZnCl2/33 μl NaCl; RTA 2: 15 μM ZnCl2/33 μl NaCl. At D18, the mice were sacrificed and the weight of the RTA and LTA muscles was measured.
# [1] = system: gamma-sarcoglycan -/- mice; experiment: Weight of tibialis anterior muscles at D18 after intramuscular injection into dystrophic gamma-sarcoglycan -/- mice; type: in vivo; conditions: D18, one value per mouse
# Description: The protein used was recombinant mouse decorin (mDecorin) of sequence SEQ ID NO: 6, provided by R&D Systems. Twenty-four to forty hours before the injection, 100 μl of 150 mM sterile NaCl and 6 μl of 250 μM ZnCl2 were added to 100 μg of mDecorin powder. The final volume was 106 μl with a final concentration of approximately 1 μg/μl. For the injections into the control muscles a mixture was also prepared of 100 μl of 150 mM NaCl and 6 μl of 250 μM ZnCl2. All these solutions, after being vortexed, were stored at 4° C. In Vivo Injection mdx dystrophic ([…] muscular dystrophy) or gamma-sarcoglycan −/− mice were used that were at least 6 weeks old. 20 μg of mDecorin, i.e. 22 μl of the solution described above (20 μg Decorin+15 μM ZnCl2/22 μl NaCl), were injected into the left tibialis anterior (LTA), the muscle treated. 22 μl of the control solution described above (15 μM ZnCl2/22 μl NaCl) were administered into the control muscle, the right tibialis anterior (RTA). A specific number of days after injection, the mice were sacrificed and the RTA and LTA were removed, weighed then frozen for further histological study. A second series of experiments was performed on four gamma-sarcoglycan −/− mice. The protocol was identical to that described for mdx mice. The mice were sacrificed on D18.
Molecule,"Activity of decorin fragment on muscle growth (ability to increase muscle mass), in words (mdx mice)","Weight of treated muscle (LTA) (mdx mice; 65 μg peptide + 15 μM ZnCl2/33 μl NaCl intramuscular into left tibialis anterior, D18, one value per mouse)","Growth (mdx mice; 65 μg peptide + 15 μM ZnCl2/33 μl NaCl intramuscular, treated LTA vs control RTA, D18, one value per mouse)","Weight of treated muscle (LTA) (mdx mice; 20 μg mDecorin + 15 μM ZnCl2 intramuscular into left tibialis anterior, Day 7, one value per mouse)","Weight of treated muscle (LTA) (mdx mice; 20 μg mDecorin + 15 μM ZnCl2 intramuscular into left tibialis anterior, Day 14, one value per mouse)","Weight of treated muscle (LTA) (mdx mice; 20 μg mDecorin + 15 μM ZnCl2 intramuscular into left tibialis anterior, Day 21, one value per mouse)","Growth in % (100*LTA/RTA) − 100 (mdx mice; 20 μg mDecorin + 15 μM ZnCl2 intramuscular, treated LTA vs control RTA, Day 7, one value per mouse)","Growth (mdx mice; 20 μg mDecorin + 15 μM ZnCl2 intramuscular, treated LTA vs control RTA, Day 14, one value per mouse)","Growth (increase in muscle mass) (mdx mice; 20 μg mDecorin + 15 μM ZnCl2 intramuscular, treated LTA vs control RTA, Day 21, one value per mouse)","Growth (increase in muscle mass) (mdx mice; 20 μg mDecorin + 15 μM ZnCl2 intramuscular, treated LTA vs control RTA, Day 21, one value per mouse, listed as decorin)",Weight of treated muscle (LTA) ([1]; 20 μg mDecorin + 15 μM ZnCl2 intramuscular into left tibialis anterior),"Growth ([1]; 20 μg mDecorin + 15 μM ZnCl2 intramuscular, treated LTA vs control RTA)"
SEQ ID NO:15: fragment of 30 residues (residues 42 to 71 of murine decorin SEQ ID NO: 6) (DNPLISMCPYRCQCHLRVVQCSDLGLDKVP; murine 42-71 DCN),also active,–,–,–,–,–,–,–,–,–,–,–
"mDCN 31-71: peptide (SEQ ID NO: 7) corresponding to residues 31-71 of murine decorin, zinc-binding N-terminal part, synthesised by NeoMPS (DEASGIIPYDPDNPLISMCPYRCQCHLRVVQCSDLGLDKVP; murine 31-71 DCN)",had the required activity,0.0583 g and 0.0468 g and 0.05 g,8.77% and 19.39% and 24.69%,–,–,–,–,–,–,–,–,–
B1,–,–,–,0.0682 g and 0.0781 g and 0.0771 g,0.1124 g and 0.103 g and 0.0911 g,0.1041 g and 0.0943 g and 0.1003 g,3.18% and 0.90% and 2.94%,58.98% and 48.41% and 6.67%,53.09% and 66.31% and 37.21%,53.09% and 66.31%,0.0505 g and 0.0485 g and 0.0593 g and 0.0551 g,10.75% and 17.43% and 12.31% and 24.10%
